Biological target: T1, CXCR4 (UniProt P61073 1-352)
T1 construct: whole, on cells; also called X4
Assay: western blot binding assay on CXCR4-transfected cells

T1 sequence (P61073 whole entry): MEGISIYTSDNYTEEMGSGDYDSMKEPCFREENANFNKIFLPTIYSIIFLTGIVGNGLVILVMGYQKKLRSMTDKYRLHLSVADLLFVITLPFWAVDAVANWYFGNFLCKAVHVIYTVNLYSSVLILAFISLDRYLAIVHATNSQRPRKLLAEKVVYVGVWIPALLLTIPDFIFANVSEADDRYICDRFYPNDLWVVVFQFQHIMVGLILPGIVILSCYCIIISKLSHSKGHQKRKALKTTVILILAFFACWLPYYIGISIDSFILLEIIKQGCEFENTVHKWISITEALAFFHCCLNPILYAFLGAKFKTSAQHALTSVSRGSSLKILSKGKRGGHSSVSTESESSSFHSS

B1: HIV-2/VCP gp120 (other)
chain: KQFVTVFYGIPAWRNASIPLFCATKNRDTWGTIQCLPDNDDYQEIALNVTEAFDAWNNTVTEQAVEDVWNLFETSIKPCVKLTPLCVAMNCTRNMTTSTGTTDTQNITIINDTSPCVRADNCTGLKEEEMVDCQFNMTGLERDKRKQYTEAWYSKDVICDNNTSSRSKCYMNHCNTSVITESCDKHYWDAMRFRYCAPPGFALLRCNDTNYSGFAPNCSKVVAATCTRMMETQSSTWFGFNGTRAENRTYIYWHGKNNRTIISLNNFYNLTMHCKRPGNKTVLPIMSGFKFHSKPVINKKPRQAWCWFKGEWKEAMQEVKETLAKHPRYKGNRSRTENIKFKAPGRGSDPEAAYMWTNCRGEFLYCNMTWFLNWVDNRTGQKQRNYAPCHIRQIINTWHRVGKNVYLPPREGELTCNSTVTSIIANIDTGDQTDITFSAEVAELYRLELGDYKLVEITPIGFAPTSVKRYSSAHQRHTR
notes: also called gp120 Env of HIV-2/VCP
  binding result: binds
